This data set in a line: self-splicing fitness, log relative to wild type (ln ratio); higher = more splicing; Tetrahymena group I intron in knt gene, E. coli kanamycin selection, DiMSum; sequences stand for … in CUCUCU…GGAGGGAAAAGUUAUCAGGCAUGCACCUGGUAGCUAGUCUUUAAACCAAUAGAUUGCAUCGGUUUAAAAGGCAAGACCGUCAAAUUGCGGGAAAGGGGUCAACAGCCGUUCAGUACCAAGUCUCAGGGGAAACUUUGAGAUGGCCUUGCAAAGGGUAUGGUAAUAAGCUGACGGACAUGGUCCUAACCACGCAGCCAAGUCCUAAGUCAACAGAUCUUCUGUUGAUAUGGAUGCAGUUCACAGACUAAAUGUCGGUCGGGGAAGAUGUAUUCUUCUCAUAAGAUAUAGUCGGACCUCUCCUUAAUGGGAGCUAGCGGAUGAAGUGAUGCAACACUGGAGCCGCUGGGAACUAAUUUGUAUGCGAAAGUAUAUUGAUUAGUUUUGGAGUACUCGUGGUCG
The method in brief:
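DiMSum derived fitness as the error-weighted combination of fold changes across replicates, kanamycin versus no kanamycin, normalised to wild type. E. coli BL21(DE3) held the library, which randomised all eight P1ex-region intron nucleotides within the knt kanamycin-resistance gene on pET-22b(+). Six replicate transformations grew overnight at 37°C or 30°C on LB agar with or without 25 μg/mL kanamycin, also containing 100 μg/mL carbenicillin, 50 μM IPTG and 0.2% rhamnose, and pooled colonies were amplicon-sequenced on an Illumina HiSeq 2500.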

± gives the uncertainty stated by the source.

AGUGAGCAAUAUUACGACGG: the “self-splicing fitness (ln)” value was -3.25 ± 0.28 (30 °C) and -0.814 ± 0.22 (37 °C).

In the case of AGUGAGCAAUAUUACGAGCA, the “self-splicing fitness (ln)” value reads like this: (30 °C) -0.561 ± 0.11; (37 °C) -0.436 ± 0.11.

Regarding AGUGAGCAAUAUUACGAUUA, the “self-splicing fitness (ln)” value reads like this: (30 °C) -2.67 ± 0.3; (37 °C) -1.47 ± 0.37.

Regarding AGUGAGCAAUAUUACGCCAG, for the setting “37 °C”, the “self-splicing fitness (ln)” value is -2.12 ± 0.45.

As for AGUGAGCAAUAUUACGCGAG, where the note is “30 °C”, the “self-splicing fitness (ln)” value was -2.91 ± 0.49.

On to AGUGAGCAAUAUUACGCGCC, for which, under “30 °C”, the “self-splicing fitness (ln)” value was -2.21 ± 0.23.

For AGUGAGCAAUAUUACGGAAC, the “self-splicing fitness (ln)” value (30 °C) was -2.5 ± 0.43.

With AGUGAGCAAUAUUACGGACU, the “self-splicing fitness (ln)” value is -1.28 ± 0.12 (30 °C) and -0.761 ± 0.13 (37 °C).

On to AGUGAGCAAUAUUACGUAUC, for which the “self-splicing fitness (ln)” value (30 °C) was -3.05 ± 0.34.

AGUGAGCAAUAUUACGUCCG: for the setting “37 °C”, the “self-splicing fitness (ln)” value is -0.894 ± 0.22.

Take AGUGAGCAAUAUUACGUCGG: the “self-splicing fitness (ln)” value is -3.07 ± 0.31 (30 °C) and -1.97 ± 0.36 (37 °C).

With AGUGAGCAAUAUUACGUCUU, the “self-splicing fitness (ln)” value was -1.07 ± 0.082 (30 °C) and -1.31 ± 0.1 (37 °C).

On to AGUGAGCAAUAUUACGUGAG, for which the “self-splicing fitness (ln)” value is -3.58 ± 0.31 (30 °C) and -0.839 ± 0.19 (37 °C).

For the sequence AGUGAGCAAUAUUACGUGCU, the “self-splicing fitness (ln)” value (30 °C) is -1.86 ± 0.28.

Consider AGUGAGCAAUAUUACGUGGA, for which the “self-splicing fitness (ln)” value is, setting by setting: (30 °C) -2.63 ± 0.32; (37 °C) -1.49 ± 0.28.

AGUGAGCAAUAUUACGUGUA: the “self-splicing fitness (ln)” value runs as follows: (30 °C) -3.6 ± 0.28; (37 °C) -2.84 ± 0.23.

Turning to AGUGAGCAAUAUUACGUUAG, the “self-splicing fitness (ln)” value runs as follows: (30 °C) -2.97 ± 0.19; (37 °C) -2.03 ± 0.17.

As for AGUGAGCAAUAUUACGUUCG, the “self-splicing fitness (ln)” value was -3.26 ± 0.16 (30 °C) and -2.22 ± 0.14 (37 °C).

AGUGAGCAAUAUUACGUUUU: the “self-splicing fitness (ln)” value (30 °C) is -3.26 ± 0.14 and the “self-splicing fitness (ln)” value (37 °C) was -2.57 ± 0.15.

With AGUUAGCAAUAUUACGAAGA, the “self-splicing fitness (ln)” value (30 °C) was -1.18 ± 0.4 and the “self-splicing fitness (ln)” value (37 °C) was -2.26 ± 0.34.

Take AGUUAGCAAUAUUACGAAUA: the “self-splicing fitness (ln)” value is -1.43 ± 0.14 (30 °C) and -0.681 ± 0.21 (37 °C).

For the sequence AGUUAGCAAUAUUACGAAUG, the “self-splicing fitness (ln)” value runs as follows: (30 °C) -2.33 ± 0.16; (37 °C) -1.56 ± 0.17.

On to AGUUAGCAAUAUUACGAGAU, for which the “self-splicing fitness (ln)” value reads like this: (30 °C) -2.15 ± 0.18; (37 °C) -1.17 ± 0.16.

As for AGUUAGCAAUAUUACGAGCC, the “self-splicing fitness (ln)” value (30 °C) is -1.84 ± 0.13 and the “self-splicing fitness (ln)” value (37 °C) is -1.12 ± 0.13.

As for AGUUAGCAAUAUUACGAUGG, the “self-splicing fitness (ln)” value (30 °C) was -2.45 ± 0.17 and the “self-splicing fitness (ln)” value (37 °C) is -1.51 ± 0.19.

With AGUUAGCAAUAUUACGAUUA, the “self-splicing fitness (ln)” value (37 °C) was -0.435 ± 0.33.

As to AGUUAGCAAUAUUACGAUUG, the “self-splicing fitness (ln)” value is -3.3 ± 0.27 (30 °C) and -1.84 ± 0.24 (37 °C).

On to AGUUAGCAAUAUUACGCAAC, for which the “self-splicing fitness (ln)” value runs as follows: (30 °C) -2.75 ± 0.24; (37 °C) -3.1 ± 0.37.

Regarding AGUUAGCAAUAUUACGCAAG, the “self-splicing fitness (ln)” value was -2.63 ± 0.12 (30 °C) and -1.24 ± 0.13 (37 °C).

As to AGUUAGCAAUAUUACGCAUC, the “self-splicing fitness (ln)” value is, setting by setting: (30 °C) -3.63 ± 0.43; (37 °C) -1.68 ± 0.23.

Consider AGUUAGCAAUAUUACGCCAA, for which, under “37 °C”, the “self-splicing fitness (ln)” value is -1.58 ± 0.43.

Regarding AGUUAGCAAUAUUACGCGAG, the “self-splicing fitness (ln)” value was -2.52 ± 0.22 (30 °C) and -1.52 ± 0.21 (37 °C).

As for AGUUAGCAAUAUUACGCUUA, the “self-splicing fitness (ln)” value is, setting by setting: (30 °C) -1.3 ± 0.15; (37 °C) -0.343 ± 0.16.

On to AGUUAGCAAUAUUACGGAAA, for which the “self-splicing fitness (ln)” value is -2.89 ± 0.35 (30 °C) and -2.55 ± 0.44 (37 °C).

For the sequence AGUUAGCAAUAUUACGGAAU, the “self-splicing fitness (ln)” value runs as follows: (30 °C) -3.73 ± 0.46; (37 °C) -2 ± 0.43.

Turning to AGUUAGCAAUAUUACGGCGA, the “self-splicing fitness (ln)” value by setting is: (30 °C) 0.115 ± 0.16; (37 °C) 0.709 ± 0.16.

In the case of AGUUAGCAAUAUUACGGCGG, the “self-splicing fitness (ln)” value runs as follows: (30 °C) -0.53 ± 0.085; (37 °C) -0.514 ± 0.13.

For the sequence AGUUAGCAAUAUUACGGCUU, the “self-splicing fitness (ln)” value was -2.22 ± 0.23 (30 °C) and -1.04 ± 0.22 (37 °C).

On to AGUUAGCAAUAUUACGGGCA, for which the “self-splicing fitness (ln)” value is, setting by setting: (30 °C) -0.103 ± 0.13; (37 °C) -0.162 ± 0.15.

Take AGUUAGCAAUAUUACGGUAA: the “self-splicing fitness (ln)” value runs as follows: (30 °C) -2.21 ± 0.17; (37 °C) -1.53 ± 0.12.

Regarding AGUUAGCAAUAUUACGGUGG, the “self-splicing fitness (ln)” value runs as follows: (30 °C) -1.16 ± 0.18; (37 °C) -2.42 ± 0.27.

Regarding AGUUAGCAAUAUUACGUACC, the “self-splicing fitness (ln)” value reads like this: (30 °C) -0.585 ± 0.24; (37 °C) -0.376 ± 0.28.

On to AGUUAGCAAUAUUACGUGUC, for which the “self-splicing fitness (ln)” value by setting is: (30 °C) -2.09 ± 0.33; (37 °C) -1.42 ± 0.36.

Consider AUAAAGCAAUAUUACGAAUA, for which the “self-splicing fitness (ln)” value is, setting by setting: (30 °C) -0.578 ± 0.14; (37 °C) -0.302 ± 0.26.

AUAAAGCAAUAUUACGAGAG: the “self-splicing fitness (ln)” value is -2.29 ± 0.18 (30 °C) and -1.03 ± 0.15 (37 °C).

As to AUAAAGCAAUAUUACGAGGA, the “self-splicing fitness (ln)” value was -3.28 ± 0.23 (30 °C) and -1.74 ± 0.19 (37 °C).

Regarding AUAAAGCAAUAUUACGAGUU, the “self-splicing fitness (ln)” value is -1.9 ± 0.081 (30 °C) and -0.509 ± 0.085 (37 °C).

For AUAAAGCAAUAUUACGAUCA, the “self-splicing fitness (ln)” value by setting is: (30 °C) 0.0672 ± 0.054; (37 °C) 0.203 ± 0.077.

As to AUAAAGCAAUAUUACGAUCU, the “self-splicing fitness (ln)” value was 0.387 ± 0.11 (30 °C) and 0.308 ± 0.097 (37 °C).

For AUAAAGCAAUAUUACGAUUC, the “self-splicing fitness (ln)” value (30 °C) was -0.837 ± 0.085 and the “self-splicing fitness (ln)” value (37 °C) was -0.228 ± 0.097.

As for AUAAAGCAAUAUUACGCCUC, the “self-splicing fitness (ln)” value runs as follows: (30 °C) -0.875 ± 0.14; (37 °C) -0.532 ± 0.2.

On to AUAAAGCAAUAUUACGCGCG, for which the “self-splicing fitness (ln)” value by setting is: (30 °C) -0.354 ± 0.09; (37 °C) 0.713 ± 0.12.

For the sequence AUAAAGCAAUAUUACGCUAC, the “self-splicing fitness (ln)” value runs as follows: (30 °C) -3.14 ± 0.25; (37 °C) -2.99 ± 0.33.

AUAAAGCAAUAUUACGGGAA: the “self-splicing fitness (ln)” value runs as follows: (30 °C) -1.08 ± 0.097; (37 °C) -0.426 ± 0.14.

Consider AUAAAGCAAUAUUACGUAAC, for which the “self-splicing fitness (ln)” value runs as follows: (30 °C) -1.92 ± 0.13; (37 °C) -0.901 ± 0.17.

For AUAAAGCAAUAUUACGUAUU, the “self-splicing fitness (ln)” value (30 °C) is -2.73 ± 0.12 and the “self-splicing fitness (ln)” value (37 °C) was -1.79 ± 0.13.

As to AUAAAGCAAUAUUACGUCUC, the “self-splicing fitness (ln)” value by setting is: (30 °C) -1.4 ± 0.093; (37 °C) -0.541 ± 0.13.

As for AUAAAGCAAUAUUACGUCUU, the “self-splicing fitness (ln)” value was determined as 0.183 ± 0.05 (30 °C) and 0.29 ± 0.073 (37 °C).

For AUAAAGCAAUAUUACGUUCG, the “self-splicing fitness (ln)” value (30 °C) was -0.321 ± 0.085 and the “self-splicing fitness (ln)” value (37 °C) is 0.17 ± 0.13.

With AUAAAGCAAUAUUACGUUGA, the “self-splicing fitness (ln)” value reads like this: (30 °C) -2.1 ± 0.095; (37 °C) -1.77 ± 0.13.

Regarding AUACAGCAAUAUUACGAACG, the “self-splicing fitness (ln)” value runs as follows: (30 °C) -0.79 ± 0.12; (37 °C) -1.44 ± 0.17.

Consider AUACAGCAAUAUUACGAAUU, for which the “self-splicing fitness (ln)” value (30 °C) was -2.71 ± 0.15 and the “self-splicing fitness (ln)” value (37 °C) was -1.16 ± 0.14.

Turning to AUACAGCAAUAUUACGACCC, the “self-splicing fitness (ln)” value by setting is: (30 °C) -1.1 ± 0.21; (37 °C) -0.179 ± 0.17.

Values taken from the supplement of paper PMC7877785.
